Among the data in patent US20240035010, “COMPOSITIONS COMPRISING A VARIANT POLYPEPTIDE AND USES THEREOF” (Arbor Biotechnologies, Inc., published 2024) are indel activity values, retold here.

Data set [1] deals with T1, variant nuclease E154G combination (P14R, D32R, I61R, E311R, E154G).
T1 chain: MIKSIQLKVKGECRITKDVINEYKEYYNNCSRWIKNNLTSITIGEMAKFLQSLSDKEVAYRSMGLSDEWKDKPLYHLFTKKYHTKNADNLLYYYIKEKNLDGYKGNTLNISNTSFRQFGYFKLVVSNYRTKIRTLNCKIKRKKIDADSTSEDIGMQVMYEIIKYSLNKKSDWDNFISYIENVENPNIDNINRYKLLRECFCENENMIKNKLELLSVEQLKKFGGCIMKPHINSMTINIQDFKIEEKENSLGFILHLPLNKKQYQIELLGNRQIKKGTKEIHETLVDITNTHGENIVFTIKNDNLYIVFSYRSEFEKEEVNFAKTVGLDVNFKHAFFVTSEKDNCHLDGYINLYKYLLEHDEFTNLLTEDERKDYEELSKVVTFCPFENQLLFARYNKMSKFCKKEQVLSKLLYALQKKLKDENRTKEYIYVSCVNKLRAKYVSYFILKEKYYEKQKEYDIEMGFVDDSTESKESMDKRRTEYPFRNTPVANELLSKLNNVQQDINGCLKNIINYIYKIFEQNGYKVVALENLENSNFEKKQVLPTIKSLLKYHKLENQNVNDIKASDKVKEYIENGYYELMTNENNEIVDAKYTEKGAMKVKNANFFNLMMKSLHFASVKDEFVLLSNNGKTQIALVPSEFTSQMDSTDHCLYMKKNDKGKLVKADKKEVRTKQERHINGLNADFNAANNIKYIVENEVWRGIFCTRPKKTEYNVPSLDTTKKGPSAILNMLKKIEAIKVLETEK
The data set is described as follows: cell_activity; PAM 5'-TTTG-3'. As to conditions: tags: pcDNA3.1 expression. The essentials: (§1)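 HEK293T cells were lipofected with nuclease plasmid (pcDNA3.1 backbone) plus RNA guide plasmid, with guide omitted in negative controls. After ~72 h cells were lysed in QuickExtract and % indels were derived from NGS reads, averaged over two bioreplicates and two technical replicates.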

Data set [2] concerns the target T2, variant nuclease T338G combination (P14R, D32R, I61R, E311R, T338G).
T2 chain: T1 chain with G154E, T338G
Kind of data set: cell_activity; PAM 5'-TTTG-3'. As to conditions: tags: pcDNA3.1 expression. In a few lines:
as §1

Numbering of substitutions follows the chain as printed.

B1: AAVS1 crRNA ; AAVS1 target (ssRNA ; dsDNA)
RNA: CUUGUUGUAUAUGUCCUUUUAUAGGUAUUAAACAACUGAGAAUGGUGCGUCCUAGG
DNA 1: TGAGAATGGTGCGTCCTAGG
DNA 2: CCTAGGACGCACCATTCTCA
For the molecule B1, the indel activity in data set [1] was 5.79 fold of WT; in data set [2] it was 5.93 fold of WT.
